Data reported in US20130029377.

Biological target: Apolipoprotein A-1 Milano (ApoA-1M)
Sequence (chain, as listed by the source): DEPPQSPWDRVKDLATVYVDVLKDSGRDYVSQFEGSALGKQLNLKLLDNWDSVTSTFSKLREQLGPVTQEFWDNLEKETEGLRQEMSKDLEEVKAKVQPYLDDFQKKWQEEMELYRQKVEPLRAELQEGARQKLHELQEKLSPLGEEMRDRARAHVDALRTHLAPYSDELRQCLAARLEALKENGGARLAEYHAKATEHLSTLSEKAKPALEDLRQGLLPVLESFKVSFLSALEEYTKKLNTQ

B1: outer membrane protease 3B (Protease 7 precursor, or OmpT) (protein)
chain: STETLSFTPDNINADISLGTLSGKTKERVYLAEEGGRKVSQLDWKFNNAAIIKGAINWDLMPQISIGAAGWTTLGSRGGNMVDQDWMDSSNPGTWTDESRHPDTQLNYANEFDLNIKGWLLNEPNYRLGLMAGYQESRYSFTARGGSYIYSSEEGFRDDIGSFPNGERAIGYKQRFKMPYIGLTGSYRYEDFELGGTFKYSGWVESSDNDEHYDPGKRITYRSKVKDQNYYSVAVNAGYYVTPNAKVYVEGAWNRVTNKKGNTSLYDHNNNTSDYSKNGAGIENYNFITTAGLKYTF
**Q.** With B1 as the protein, how does the ApoA-1M K238/K239 truncated species (% total ApoA-1M), Capture pool, ompT+ strain ΔdppAΔoppAΔmalE (% total ApoA-1M) read?
**A.** The ApoA-1M K238/K239 truncated species (% total ApoA-1M), Capture pool, ompT+ strain ΔdppAΔoppAΔmalE (% total ApoA-1M) was 1.9.

**Q.** What about the ApoA-1M K238/K239 truncated species (% total ApoA-1M), DEAE pool, ompT+ strain ΔdppAΔoppAΔmalE (% total ApoA-1M) of the same protein?
**A.** Its ApoA-1M K238/K239 truncated species (% total ApoA-1M), DEAE pool, ompT+ strain ΔdppAΔoppAΔmalE (% total ApoA-1M) is 1.3.

**Q.** What about the ApoA-1M K238/K239 truncated species (% total ApoA-1M), DEAE post-peak pool, ompT+ strain ΔdppAΔoppAΔmalE (% total ApoA-1M) of the same protein?
**A.** The ApoA-1M K238/K239 truncated species (% total ApoA-1M), DEAE post-peak pool, ompT+ strain ΔdppAΔoppAΔmalE (% total ApoA-1M) was 7.

**Q.** What about the ApoA-1M K238/K239 truncated species (% total ApoA-1M), selected DEAE post-peak fraction, ompT+ strain ΔdppAΔoppAΔmalE (% total ApoA-1M) of the same protein?
**A.** Its ApoA-1M K238/K239 truncated species (% total ApoA-1M), selected DEAE post-peak fraction, ompT+ strain ΔdppAΔoppAΔmalE (% total ApoA-1M) is 14.2.

**Q.** And the “K238/K239 truncation of ApoA-1M, ompT+ strain against ΔompT strain” value?
**A.** The value was “marked (~5- to 20-fold) reduction in the amount of truncated ApoA-1M in the GB004 strain compared with the 3K0 strain”.
